± gives the half width of the 95% confidence interval.
Assay: folding stability dG unfold from chymotrypsin proteolysis; higher = more stable
How it was run: (§1)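 Unfolding free energy was derived, per protease or combined, against a sequence-predicted unfolded-state K50 and a shared folded-state K50, starting from K50 inferred by Bayesian fitting of sequencing counts. Digestion with trypsin and chymotrypsin was carried out on designed mini-proteins under 80 residues without cysteine in a PA-tagged cDNA display construct. Only designs with AlphaFold2 dimer inter-PAE above 15 were kept.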

Point of comparison: “SAGGKKPERVKITIMIPFDDPDKLRNFLRNHGFKVDEVEPNKEGMLAVEFEFPGYEIEIIIMDPGAMSAGGS [r16_170_TrROS]”, “folding stability dG unfold” value 3.74 ± 0.087 kcal/mol. Against it:
- SAGPNKPYKIRVSIMHPGKWREHEIDIDPGEDIEEALDEIMDKLPPNWMIMIHYANGEMIMIPIPPEMISAG [r5_77_TrROS] — lower, 2.18 ± 0.086 kcal/mol
- SAGGGNKPKIKVLLFFPDRVVELEFESPEEFIRALEEAGFPVIPVSEDSKYLVIEFPDGLRALADFSSAGGS [r8_365_TrMRF] — lower, 2.476 ± 0.014 kcal/mol
- SAGGSAGGSAGGGMMKTVLISLEGVDPSGGPSRRVEIELTLSPEEIPKVIEELAKAGRVLSAGGSAGGSAGG [r7_618_JUSTAS] — lower, -0.0881 ± 0.1 kcal/mol
- SAGGIKEVKFDPKTNTLTVYLPEVGATITYNPTAGKLEIYSKDGKPKTIDVPTPSEMKKAILKAYKELKSAG [r5_467_TrMRF] — lower, 2.84 ± 0.069 kcal/mol
- SAGGSAGGSMRLDLDDIKRVEREPTPNGMRVYEIKLKGHKLPIRYHDNKIEISPEFKDLLKDISAGGSAGGS [r20_92_TrROS] — lower, -0.483 ± 0.23 kcal/mol
- SAGMKIKITLPNGAEFESNPETGKIEVIDPETGKPLIAYIPKDRPDIAFIFDPDNPKPLFEVKIDEIYPSAG [r5_761_TrMRF] — lower, 1.27 ± 0.042 kcal/mol
- EKALEAARELARKLAEELGVEVEVRVKKVSVLNENGELIAEVEVEITVRPLPPPVVEEEEVEEEEVEFEEES [r1_318_TrROS_Hall] — lower, 2.18 ± 0.17 kcal/mol
- SAGGSAGGSDYEYENEKDPDGQTKMKMRPKPPPVTVEVLIKLPNGLYFPIEITIYGNHITISISAGGSAGGS [r12_784_TrROS] — lower, 2.52 ± 0.075 kcal/mol
- SAGKITLDGFTLDGEQTLTLTVEVPAPGGGTRTETFTATVTFDPETGTAHVPVTLPNGEELPFTFKVDASAG [r5_743_TrMRF] — lower, 1.52 ± 0.09 kcal/mol
- SAGGMIVEEETKPTPPLPDGTLVTESKVTIYINGKKITTTVKTTTLPDGTKVVETTLKGKKLKIILESAGGS [r16_448_JUSTAS] — lower, 3.193 ± 0.027 kcal/mol

Assay: folding stability dG unfold (combined trypsin and chymotrypsin); higher = more stable
How it was run: as §1

Point of comparison: “SAGGSAGGSAGGKIYKKKNGTYKIIIYDKKTKKVYEIEIPVSKEDKPKILKEAKELAKKSAGGSAGGSAGGS [r10_379_TrROS_Hall]”, “folding stability dG unfold” value 1.17 ± 0.084 kcal/mol. Against it:
- SAGGEVKPGDKVKVRLRLRVRLEDGEEVEVELEFVEVEVVPLSEEEKEKLEELKKKKPEVDPKNKELLSAGG [r13_330_TrROS_Hall] — higher, 1.81 ± 0.3 kcal/mol
- SAGGELKLLFNFPSKEEAEEFAEALKKAYPNFEVEVEYDPETGLFYLTLKPKEIPPLSPEELEKLLESAGGS [r16_674_TrMRF] — higher, 4.7 ± 0.071 kcal/mol
- SAGGSAGGSGDSITLPVSVPKGSELVIENLSTNKKVIIPDDGPVTITIDKGKDGLKISAEVEKSAGGSAGGS [r12_919_TrMRF] — lower, -0.0498 ± 0.25 kcal/mol
- SAGGSAGGSAKEVIIEIKVPPNMTEDEIKELLKKKFKGKKVEIKIEKKKNKNGTLIYKVEVKSAGGSAGGSA [r18_360_TrROS_Hall] — higher, 2.73 ± 0.34 kcal/mol
- SAGGSAGGSAGGEPDKVSIHINITEEFIEQIKNGKPIPPWARPAIKYAQKKGKKVEIVWSAGGSAGGSAGGS [r10_890_TrROS] — lower, -0.498 ± 0.26 kcal/mol
- SAGGSAGGKLENLPENVTEVRIEKNENGEYTIYVRNKETNEYVKLKVEKKDGEWKIVEKEVFPKSAGGSAGG [r6_937_TrROS_Hall] — higher, 2.74 ± 0.26 kcal/mol
- SAGGSAGGSAKEKYILLKVKPGQKVEIEYENGEKKEVEVLEDGYLLIKVKEKNAKIKIKIKSAGGSAGGSAG [r3_334_TrROS_Hall] — higher, 2.76 ± 0.32 kcal/mol
- SAGGSAGGSAGPKILSIEEYDPENGYITVIAELTGKPVRMKVKFIPGKKEIKIIEIEPLDSAGGSAGGSAGG [r11_1066_TrMRF] — higher, 2.36 ± 0.1 kcal/mol
- SAGGKYKIEIVDVEVKEDGTVTIKLKLYNENGELIAEIEIELKGVKEVTLELEIGGKKIKITLKVEKPSAGG [r13_427_TrROS_Hall] — higher, 5.36 ± 0.41 kcal/mol
- SAGGSAEKPVRTLEITVTVPPGQPTPEELARALAEELGVEVTRVEVVRVERNEDGELTVTVRVEVKSAGGSA [r15_654_TrROS_Hall] — higher, 2.99 ± 0.14 kcal/mol
- SAGGSAGGSAPMVLLLEFDSPEEATEAAKKIAEEFEKLGAKVEVEIFKPPEDKYLVLIRIDSAGGSAGGSAG [r3_211_TrMRF] — higher, 3.89 ± 0.21 kcal/mol
- SAGGSAGGSAGGMKKKKLKEGVEIEFFREGDYLYVTTKIPETGKEETKKVKKVPKDIPLSAGGSAGGSAGGS [r10_240_JUSTAS] — lower, 0.22 ± 0.23 kcal/mol
- SAGGSAGGSAGDEPNDVVKIDFTFFFEDGYMIEMDIVIVPNGNIAIEIEIEPIKPPDEGDSAGGSAGGSAGG [r11_998_TrROS] — higher, 2.09 ± 0.31 kcal/mol
- SAGGGMMVLKVSQPVLLLSTVTLPNGFPKFLPVSPLSLETTVTFTGSDQDAEELAAELKAQGATVTEESAGG [r13_452_JUSTAS] — lower, 0.715 ± 0.078 kcal/mol
- SAGSKVPVTATATFSDKAELEKTVADIKAKTGYDIEVTYDPNSNSYTITVNTTDEVVKMLKEKGFKLESAGG [r19_306_JUSTAS] — higher, 2.14 ± 0.28 kcal/mol
- SAGGMKIEIELEDGYLRVKIYDKDGKLIEEIEIKIEKVEPPPEVEVELSPEELAKKLGVEIEIKEKESAGGS [r16_778_TrROS_Hall] — higher, 2.32 ± 0.44 kcal/mol
- SAGGSAGGSAGMKEGEIVEVTVPIPENGEEIKVKVVAPPSLTEEEARALAEEKAKEIYEKSAGGSAGGSAGG [r11_355_JUSTAS] — lower, 0.595 ± 0.077 kcal/mol
- SAGGSAGGSAGGSWKIDKFTSIERTDGGYVIRIRMENPDGPPMKQTFYFPPGDDELANISAGGSAGGSAGGS [r4_253_TrROS] — lower, 0.344 ± 0.27 kcal/mol
- SAGGSAGGSAGGMSFPVSSVEYRKDPNSDTPLVFITLPDGTVIIERLDTGTSSVVPVSQLSAGGSAGGSAGG [r11_922_JUSTAS] — within error, 1.21 ± 0.067 kcal/mol
- SAGGSAGGSGMAVSVSVTPVRLPDGSVRLVISFSSGSTVVLDLPESEWTPEQVEALVAELVSASAGGSAGGS [r12_218_JUSTAS] — higher, 3.89 ± 0.058 kcal/mol
